Data from PMC9400301.
Read-outs that look alike come from different tables or passages of the source.

Tests used:
[1] = target: Tva fused with HA tag and the human IgG-Fc fragment (pCAGGS-Tva-HA-Fc)
[2] = target: Tva fused with HA tag and the human IgG-Fc fragment (pCAGGS-Tva-HA-Fc); remark: listed apart in the source
[3] = target: Tva fused with HA tag and the human IgG-Fc fragment (pCAGGS-Tva-HA-Fc); test: co-IP with grey value analysis; settings: parent: est. 1.0; read off a plot
[4] = target: Tva fused with HA tag and the human IgG-Fc fragment (pCAGGS-Tva-HA-Fc); remark: listed apart in the source

ALV-A gp85 I326T (domain or fragment)
competitive blocking test: percent GFP-positive DF-1 cells after incubation with the concentrated soluble gp85 and infection with RCASBP(A)-EGFP [1]: 4.5%

recombinant ALV-A gp85 R274V (domain or fragment)
competitive blocking test: percent GFP-positive DF-1 cells after incubation with the concentrated soluble gp85 and infection with RCASBP(A)-EGFP [2]: 9.5%

ALV-A gp85 wt (soluble gp85 of ALV-A RSA, pCAGGS-s-gp85-flag) N269del
ratio to parent [3]: 0.91

ALV-A gp85 G324P (domain or fragment)
competitive blocking test: percent GFP-positive DF-1 cells after incubation with the concentrated soluble gp85 and infection with RCASBP(A)-EGFP [1]: 5.5%

ALV-A gp85 wt (soluble gp85 of ALV-A RSA, pCAGGS-s-gp85-flag) A270del
ratio to parent [3]: 0.93

soluble recombinant ALV-A gp85 328_329insP (domain or fragment)
competitive blocking test: percent GFP-positive DF-1 cells after incubation with the concentrated soluble gp85 and infection with RCASBP(A)-EGFP [1]: 12.5%

soluble recombinant chimeric protein gp85 s8 (ALV-A gp85 with segment s8, residues 269-275, replaced by that of ALV-K) (domain or fragment)
competitive blocking test: percent GFP-positive DF-1 cells after incubation with the concentrated soluble gp85 and infection with RCASBP(A)-EGFP [4]: 11%

ALV-A gp85 wt (soluble gp85 of ALV-A RSA, pCAGGS-s-gp85-flag) 328_329insP
ratio to parent [3]: 0.71
